We go through two substances from publication PMC4507180.

Substitutions are numbered along the chain they refer to.

Data set [1] addresses DndB protein of Salmonella enterica serovar Cerro 87 (Salmonella enterica serovar Cerro 87). As to the kind of experiment: SEC; HiLoad 16/60 Superdex 200; 20 mM Tris-HCl pH 8.0, 150 mM NaCl; 0.7 mL/min; calibrated with myoglobin, ovalbumin, albumin, phosphorylase b, gamma-globulin; native mass 79 kDa.
The target of data set [2] is T1, DndB (Salmonella enterica serovar Cerro 87) (UniProt E2D676).
T1 sequence: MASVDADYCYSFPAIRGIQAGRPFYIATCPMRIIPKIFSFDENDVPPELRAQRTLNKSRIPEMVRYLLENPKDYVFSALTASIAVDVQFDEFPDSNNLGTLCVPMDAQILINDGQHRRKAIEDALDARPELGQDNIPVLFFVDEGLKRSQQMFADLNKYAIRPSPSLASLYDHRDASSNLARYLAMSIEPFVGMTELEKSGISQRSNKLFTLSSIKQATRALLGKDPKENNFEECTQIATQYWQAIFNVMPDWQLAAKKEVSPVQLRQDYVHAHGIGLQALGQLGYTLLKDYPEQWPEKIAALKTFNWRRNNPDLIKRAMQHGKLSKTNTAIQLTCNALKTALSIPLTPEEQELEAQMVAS
As to the kind of experiment: EMSA. To be noted: EMSA: 20 mM Tris-HCl pH 8.0, 50 mM KCl, 10 mM MgCl2, 5 mM EDTA, 10 mM DTT, 5% glycerol, room temperature 30 min, 20 nM DNA; footprinting: 25 C 30 min, 200 ng ….

Data set [3] addresses T2, DndB C29S C29S (Salmonella enterica serovar Cerro 87) (UniProt E2D676).
T2 sequence: T1 sequence with C29S
As to the kind of experiment: EMSA. To be noted: EMSA: 20 mM Tris-HCl pH 8.0, 50 mM KCl, 10 mM MgCl2, 5 mM EDTA, 10 mM DTT, 5% glycerol, room temperature 30 min, 20 nM DNA; footprinting: 25 C 30 min, 200 ng ….

“DndB protein of Salmonella enterica serovar Cerro 87 (natural protein)”: the stoichiometry N in data set [1] is 2.
Turning to “GCTGTAATCCGTGTAAAAATCGAATGAATTGAGTTACGTGATATTTTACGTAATGCTTAATAAAATTTATAGTTTTTTTTATGTTTTACGTGATTTTTTGCGTACAGGGTTCCATATCTGAGA (double strand) [B1]”, the binding in data set [2] worked out at 300 nM; in data set [3], 90 nM.
